Test results taken from patent US7563760 (GENETICS INSTITUTE, dated 2009).
No end group written: not given here.

How the values were obtained:
[1] = molecular target: T1, LEC-γ1, chimeric form of P-selectin conjugated to the Fc portion of a human IgGγ1 (human, UniProt P16109 42-771); assay: affinity capture on P-selectin/IgG chimera protein A sepharose, EDTA elution, scintillation counting
T1 construct: extracellular domain; Built by known methods (Aruffo et al. 1991), made in CHO DUKX cells; also called P-selectin/IgG chimera; P-selectin/Fc chimera; not shown: Fc portion of a human IgGγ1
T1 sequence (looked up): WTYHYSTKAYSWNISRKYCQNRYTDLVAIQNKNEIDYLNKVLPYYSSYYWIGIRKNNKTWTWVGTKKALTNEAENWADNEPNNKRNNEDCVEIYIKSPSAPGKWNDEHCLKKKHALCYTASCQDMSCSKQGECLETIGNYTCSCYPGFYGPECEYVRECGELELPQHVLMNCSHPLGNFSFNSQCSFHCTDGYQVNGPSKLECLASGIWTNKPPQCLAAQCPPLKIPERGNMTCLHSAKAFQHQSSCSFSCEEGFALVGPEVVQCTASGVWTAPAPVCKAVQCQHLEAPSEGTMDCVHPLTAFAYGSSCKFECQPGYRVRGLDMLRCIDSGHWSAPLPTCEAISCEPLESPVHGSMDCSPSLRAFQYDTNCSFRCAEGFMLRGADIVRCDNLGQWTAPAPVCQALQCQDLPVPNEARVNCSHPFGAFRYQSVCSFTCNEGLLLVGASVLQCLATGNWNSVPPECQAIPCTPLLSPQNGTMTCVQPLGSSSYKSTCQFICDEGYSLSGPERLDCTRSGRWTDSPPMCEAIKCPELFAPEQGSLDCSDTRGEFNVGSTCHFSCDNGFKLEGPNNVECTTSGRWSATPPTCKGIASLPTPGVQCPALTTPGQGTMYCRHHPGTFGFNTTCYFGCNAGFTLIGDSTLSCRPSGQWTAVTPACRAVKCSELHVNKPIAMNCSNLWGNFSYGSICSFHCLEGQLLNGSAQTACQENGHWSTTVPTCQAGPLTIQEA
Experimental: U937 cells (approximately 6.5 ×10^7) were recovered from tissue culture plates and divided equally into two 50 mL cultures (final concentration of […]) containing fresh complete RPMI medium and 50 µCi/ml of ^3H-glucosamine hydrochloride (labels the protein-linked carbohydrate of glycoproteins [Varki, FASEB 5:226-235 (1991)]. After 48 hours incubation, the cells from both cultures were recovered by centrifugation and washed three times with PBS. The pelleted cells were suspended in 2.5 mL each of a lysis buffer containing 1% Triton X-100 and disrupted by probe sonication for two minutes. The detergent lysates were placed on ice for three hours and then resonicated for an additional two minutes. The lysates were centrifuged at 16,000 rpm for five minutes, the supernatants were recovered and each adjusted to 12 mL with lysis buffer containing no detergent. […]
Following incubation, the two parallel reaction mixtures were each centrifuged at 2,000 rpm and supernatants were discarded. […] A final 1 mL pre-elution wash of each resin pellet using buffer containing 0.01% Triton X-100 was conducted and these were retained for quantitation of radioactive counts by liquid scintillation counting (LSC). […] The supernatants were recovered by centrifugation and then quantitated by LSC.

[2] = molecular target: T2, E-selectin/IgG chimera of Example 9 (human) (UniProt P16581); assay: affinity capture on E-selectin/IgG chimera protein A sepharose, EDTA elution, scintillation counting
T2 sequence (looked up): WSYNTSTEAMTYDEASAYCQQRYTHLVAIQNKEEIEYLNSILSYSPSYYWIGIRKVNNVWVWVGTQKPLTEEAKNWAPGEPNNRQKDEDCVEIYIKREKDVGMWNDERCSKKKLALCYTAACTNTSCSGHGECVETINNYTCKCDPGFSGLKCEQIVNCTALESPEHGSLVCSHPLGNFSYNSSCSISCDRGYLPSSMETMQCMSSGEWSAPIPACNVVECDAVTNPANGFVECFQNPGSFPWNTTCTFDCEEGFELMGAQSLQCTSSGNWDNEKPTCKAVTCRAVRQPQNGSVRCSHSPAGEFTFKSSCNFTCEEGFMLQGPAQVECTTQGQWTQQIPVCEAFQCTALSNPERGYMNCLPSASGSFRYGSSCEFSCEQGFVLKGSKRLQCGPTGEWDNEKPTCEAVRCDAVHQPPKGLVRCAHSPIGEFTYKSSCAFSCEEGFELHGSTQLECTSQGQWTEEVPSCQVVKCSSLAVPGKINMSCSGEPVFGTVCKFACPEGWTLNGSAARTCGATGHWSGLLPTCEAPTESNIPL

[3] = molecular target: T3, P-selectin expressed on the surface of CHO cells (CHO:P-selectin cell line) (UniProt P16109 42-830, limits assumed); assay: adhesion of 3H-thymidine-labelled CHO:P-selectin cells to transfected COS cells
T3 construct: whole, on cells; also called P-selectin expressing CHO cells
T3 sequence (looked up): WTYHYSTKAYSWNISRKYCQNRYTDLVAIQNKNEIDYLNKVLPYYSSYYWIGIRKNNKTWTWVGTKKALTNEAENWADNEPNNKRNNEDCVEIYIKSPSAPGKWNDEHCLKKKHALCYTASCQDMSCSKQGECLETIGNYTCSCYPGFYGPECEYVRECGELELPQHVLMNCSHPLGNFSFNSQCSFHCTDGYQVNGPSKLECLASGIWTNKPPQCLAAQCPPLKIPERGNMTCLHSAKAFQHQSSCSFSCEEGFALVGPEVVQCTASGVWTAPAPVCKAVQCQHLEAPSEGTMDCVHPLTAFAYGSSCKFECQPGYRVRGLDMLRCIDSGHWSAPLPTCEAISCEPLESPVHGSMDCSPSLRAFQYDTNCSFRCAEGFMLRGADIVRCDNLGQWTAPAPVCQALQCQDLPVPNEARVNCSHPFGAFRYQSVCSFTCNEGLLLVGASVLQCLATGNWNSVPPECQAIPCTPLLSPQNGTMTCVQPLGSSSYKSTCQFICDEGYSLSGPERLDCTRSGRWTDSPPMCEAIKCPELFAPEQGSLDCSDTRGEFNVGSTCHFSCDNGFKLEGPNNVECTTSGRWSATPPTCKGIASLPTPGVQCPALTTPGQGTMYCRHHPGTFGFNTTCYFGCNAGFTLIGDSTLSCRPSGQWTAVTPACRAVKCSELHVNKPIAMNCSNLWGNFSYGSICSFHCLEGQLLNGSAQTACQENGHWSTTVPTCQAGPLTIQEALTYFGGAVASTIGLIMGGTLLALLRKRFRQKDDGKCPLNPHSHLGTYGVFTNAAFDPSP
Experimental: COS cells were co-transfected with the pMT21:PL85 plasmid of Example 1 and the pEA.3/4FT plasmid of Example 2 by the same procedure used in the initial stages of screening. As controls, COS cells were transfected with pMT21:PL85 alone, or with pEA.3/4FT alone, or with a similar plasmid containing no insert ("mock"). 24 hours post-transfection, the transfected cells were trypsinized and distributed into Costar 6-well tissue culture plates. CHO:P-selectin cells were labeled for 16 hours with ^3H-thymidine using known methods and preincubated at 0.5×10^6 cells/ml for 30 minutes at 4° C. in α medium containing 1% BSA (control); α medium containing 1% BSA, 5 mM EDTA and 5 mM EGTA; α medium containing 1% BSA and 10 μg/ml of a neutralizing anti P-selectin monoclonal antibody; and α medium containing 1% BSA and a non-neutralizing anti-P-selectin monoclonal antibody. The preincubated cells were then added to the wells containing the transfected COS cells. After a 10 minute incubation, unbound cells were removed by 4 changes of medium. The bound CHO:P-selectin cells were released by trypsinization and quantified by scintillation counting.
Likewise, incubation with neutralizing anti-P-selectin antibody also eliminated specific binding, whereas non-neutralizing antibody had no effect. […]

[4] = molecular target: T4, E-selectin expressed on CHO cells (CHO:E-selectin) (UniProt P16581 22-610, limits assumed); assay: plate coated with chimera; adhesion of CHO:E-selectin cells (FIG. 20)
T4 construct: whole, on cells; also called E-selectin expressing CHO cells; CHO cells which express E-selectin
T4 sequence (looked up): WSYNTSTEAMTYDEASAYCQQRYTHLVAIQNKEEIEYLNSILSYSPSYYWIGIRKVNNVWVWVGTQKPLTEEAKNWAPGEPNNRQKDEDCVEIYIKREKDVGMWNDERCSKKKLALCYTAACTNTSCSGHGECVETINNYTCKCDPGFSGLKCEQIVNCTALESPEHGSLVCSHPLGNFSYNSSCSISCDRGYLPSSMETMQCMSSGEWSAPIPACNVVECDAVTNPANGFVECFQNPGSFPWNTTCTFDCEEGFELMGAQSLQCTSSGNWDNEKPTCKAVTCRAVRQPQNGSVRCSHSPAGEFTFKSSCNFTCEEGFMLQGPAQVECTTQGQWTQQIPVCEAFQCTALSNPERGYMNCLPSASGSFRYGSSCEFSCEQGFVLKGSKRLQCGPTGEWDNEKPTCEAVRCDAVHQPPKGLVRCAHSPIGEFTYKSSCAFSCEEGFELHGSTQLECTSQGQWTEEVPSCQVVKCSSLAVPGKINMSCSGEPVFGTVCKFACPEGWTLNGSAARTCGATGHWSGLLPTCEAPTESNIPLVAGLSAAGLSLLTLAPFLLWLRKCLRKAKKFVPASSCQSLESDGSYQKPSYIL
Experimental: (§1) Quantitative adhesion of CHO:P-selectin, CHO:E-selectin and CHO:L-selectin expressing cells was performed as described in Example 4(c), with the following modifications: COS cell and antibodies were omitted. Instead, 48-well microtiter plates (Costar) were coated for 16 hours at 4° C. with varying quantities of protein A-purified soluble PSGL-1/Fc chimeras. The unbound material was removed and the coated wells were treated with Hank's buffered saline (HBS) with 1 mg/ml BSA and 2 mM CaCl_2 for 1 hour at 4° C. Tritium labeled CHO selectin expressing cells were added and binding quantitated as described in Example 4(c).

[5] = molecular target: T3, P-selectin expressed on the surface of …; assay: plate coated with chimera; adhesion of CHO:P-selectin cells (FIG. 19)
Experimental: as §1

[6] = molecular target: T4, E-selectin expressed on CHO cells …; assay: plate coated with chimera; adhesion of CHO:E-selectin cells (FIG. 17)
Experimental: as §1

[7] = molecular target: T3, P-selectin expressed on the surface of …; assay: plate coated with chimera; adhesion of CHO:P-selectin cells (FIG. 17)
Experimental: as §1

B1: native PSGL-1 of U937 cells (major glycoprotein captured from detergent extracts) (ligand, human, UniProt Q14242 42-412, looked up)
chain: QATEYEYLDYDFLPETEPPEMLRNSTDTTPLTGPGTPESTTVEPAARRSTGLDAGGAVTELTTELANMGNLSTDSAAMEIQTTQPAATEAQTTQPVPTEAQTTPLAATEAQTTRLTATEAQTTPLAATEAQTTPPAATEAQTTQPTGLEAQTTAPAAMEAQTTAPAAMEAQTTPPAAMEAQTTQTTAMEAQTTAPEATEAQTTQPTATEAQTTPLAAMEALSTEPSATEALSMEPTTKRGLFIPFSVSSVTHKGIPMAASNLSVNYPVGAPDHISVKQCLLAILILALVATIFFVCTVVLAVRLSRKGHMYPVRNYSPTEMVCISSLLPDGGEGPSATANGGLSKAKSPGLTPEPREDREGDDLTLHSFLP
modifications: native myeloid glycosylation, 3H-glucosamine labelled
notes: 200-220 kD non-reduced, 100-120 kD reduced; also called U937 ligand; major U937 glycoprotein
radiolabel in the EDTA eluate relative to the final pre-EDTA wash [1]: ≥ 10 fold | radiolabel in the EDTA eluate relative to the final pre-EDTA wash [2]: > 10 fold

B2: full-length P-selectin ligand protein (PSGL-1, pMT21:PL85) expressed with fucosylation (COS or CHO cells with 3/4FT, or LEC11 cells) (ligand)
chain: QATEYEYLDYDFLPETEPPEMLRNSTDTTPLTGPGTPESTTVEPAARRSTGLDAGGAVTELTTELANMGNLSTDSAAMEIQTTQPAATEAQTTPLAATEAQTTRLTATEAQTTPLAATEAQTTPPAATEAQTTQPTGLEAQTTAPAAMEAQTTAPAAMEAQTTPPAAMEAQTTQTTAMEAQTTAPEATEAQTTQPTATEAQTTPLAAMEALSTEPSATEALSMEPTTKRGLFIPFSVSSVTHKGIPMAASNLSVNYPVGAPDHISVKQCLLAILILALVATIFFVCTVVLAVRLSRKGHMYPVRNYSPTEMVCISSLLPDGGEGPSATANGGLSKAKSPGLTPEPREDREGDDLTLHSFLP
modifications: glycosylated; co-expressed with (α1,3/α1,4) fucosyltransferase (3/4FT) or made in SLex-positive LEC11 cells
notes: Encoded as amino acids 1-402; In blots and immunoprecipitations it stood as a membrane detergent extract; also called PSL; CD-PSGL-1 (R3.4) product
fold binding of CHO:P-selectin cells relative to COS mock cells [3]: ~5.4 fold

B3: H24.Q70.148.Fc (Fc fusion)
chain: QATEYEYLDYDFLPETEPPEMLRHSTDTTPLTGPGTPESTTVEPAARRSTGLDAGGAVTELTTELANMGQLSTDSAAMEIQTTQPAATEAQTTPLAATEAQTTRLTATEAQTTPLAATEAQTTPPAATEAQTTQPTGLEAQTTAPAAM
modifications: glycosylated, co-expressed with 3/4FT
notes: also called pED.H24.Q70.148.Fc product; not shown: NotI junction/linker of pED.Fc; Fc region of a human IgG1
binding result [4]: binds | binding result [5]: binds

B4: 47.Fc of Example 10, amino acids 42-88 of SEQ ID NO:2 fused to IgG Fc (Fc fusion)
chain: QATEYEYLDYDFLPETEPPEMLRNSTDTTPLTGPGTPESTTVEPAAR
modifications: not fully specified (C-terminus); also: glycosylated, co-expressed with 3/4FT, sites not given here
notes: also called pED.47.Fc product; not shown: NotI junction/linker of pED.Fc; Fc region of a human IgG1 from pED.PSL.Fc
binding result [6]: binds | binding result [7]: binds
